Results as given in paper PMC11848413, “Bacterial polysaccharide lyase family 33: Specificity from an evolutionarily conserved binding tunnel” (Proceedings of the National Academy of Sciences of the …, 2025).

What was measured:
[1] = target: BT4410 (BtPL33^HA), PL33_1 hyaluronidase from Bacteroides thetaiotaomicron VPI-5482 (Bacteroides thetaiotaomicron VPI-5482); assay: SEC-MALS + other: SAXS; SEC-coupled light scattering and SAXS of the purified enzyme in solution, oligomeric state; conditions not shown (SI Appendix)
[2] = target: the molecule itself; assay: as above

| Molecule | stoichiometry N [1] | stoichiometry N [2] |
| --- | --- | --- |
| BT4410 (BtPL33^HA), PL33_1 hyaluronidase from Bacteroides thetaiotaomicron VPI-5482 (enzyme) | 2 | – |
| BcellWH2_04512 (BcPL33^HA), PL33_1 hyaluronidase from Bacteroides cellulosilyticus WH2 (enzyme, BcellWH2_04512, polysaccharide lyase family 33 subfamily 1 hyaluronidase of Bacteroides cellulosilyticus WH2; 68% identical to BtPL33^HA; Cloned in pET28a with either an N- or a C-terminal His6 tag; source: E. coli BL21 (DE3) or TUNER, purified (Talon cobalt IMAC, S200 Superdex SEC)) YTERNLLQKAAGSEEQLKEALVMNQKWVPYPAYNDRAGWNELLGTNKESLIRAGEKMLNYEWKVIRATDYLEYERSGERNIMQNPYEANRKAINALMLAELAEGKGRFIDQLINGAFYSCEMTSWVLSAHLVRQSTKRSLPDYREQVIDLGSGNFGSMLSWVYYFFHDSFDKIDPVISQRLRHTLQERILDPYMNNDREWWMAFQWKPGMIINNWNPWCNSNVLQCYLLLENDRDRLAKAVWRSMQSVDKFINFVKADGACEEGPSYWGHAAGKMYDYLQILSDGTDGKVSLFKEPMIRRMGEYISRTYVGNGWVVNFADASAKGGGDAPLIYRYGRAVGSEEMMQFAAYLLDGKRPSVPLGNDTFRSLQSILWNGELEKTTAAHTIPACTWYPETEFCYLTNKSGWFLATKGGFNNESHNHNDVGTFSLYVNTIPVLIDAGVGTYTRQTFSSERYTIWTMQSNYHNLPMINGVPQSFGQNYKATDVVCQPKKRFFSANIATAYPKEAEVNSWTRAYSLGDKQLTITDNFSLKSAKESNQVNFLTWGKVDISVPGKVTIDVQGQKVTLEYPGEFTATVETINLPDTRLSNVWGTEIYRIALKDKDARLTGKYKFVIK | – | 2 |
| HMPREF1181_01744 (BsPL33^Heparosan), PL33_1 heparosanase from Bacteroides stercoris CC31F (enzyme) TERHLLEQTVSYEELGNVLRYRQSWVDYPAYTDRKSWKEKTAPEMRELIIRNGERALKHEWKPDLASDYLAFKRTGEIRTGRANHKALQALTLAELVEGQGRFMDAIIDGIWFLCETSWIHSAHLGFQKDRSGLPDRNEPTIELVVADIGAQMAWTYYFLKDEFDKVSPLINERIIEEVNRNLINPYFARDDYWWMGFGGQQVNNWNPWINYNVLQALMLIEKDPERVRQGVWKLMKSTDFFFSMYHEDGACDEGPTYWSGASGYALKFLDLLAKVTGNKVNIFNAPLLRNMAQYIYRVHIGGNYFVNFADSAPKVSPSPGILYRYGELTGDPAMMKFASFMAQQNQSFKDGVNGYFASALDELFMYKDIIGHPQGEPLTGTYWFKDTQICVARDTEGKSDGFFFAAKGGNNQESHNHNDVGSCILYYNALPVLIDAGVGTYTRQTFGPERYTIWTMQSDYHNLPLINGTPQKNGREFAAHSQQYKATAKTVSYQVDIAHAYPQEANVKSWIRNYTLHRKKDFTITDKWKLSACNEPSVLNLMTCCEVEIDRNKNITLTGEAGRFRVEYDKKLLSPATDTVELTDPKLIHSWNRKKLTRIRFTIVSQQISGESKLVIRKAQYHKTLND | – | 2 |
